According to publication PMC7972864 (2021):

Assays:
[1] = molecular target: T1, rhKeap1^R415A+Y525A+ (residue 321-609 aa) (human, UniProt Q14145 321-609, R415A | Y525A, biotinylated (site not stated)); assay: BLI
[2] = molecular target: T1, rhKeap1^R415A+Y525A+ (residue 321-609 …); assay: BLI; remark: listed apart in the source

T1 sequence (Q14145 321-609 R415A/Y525A): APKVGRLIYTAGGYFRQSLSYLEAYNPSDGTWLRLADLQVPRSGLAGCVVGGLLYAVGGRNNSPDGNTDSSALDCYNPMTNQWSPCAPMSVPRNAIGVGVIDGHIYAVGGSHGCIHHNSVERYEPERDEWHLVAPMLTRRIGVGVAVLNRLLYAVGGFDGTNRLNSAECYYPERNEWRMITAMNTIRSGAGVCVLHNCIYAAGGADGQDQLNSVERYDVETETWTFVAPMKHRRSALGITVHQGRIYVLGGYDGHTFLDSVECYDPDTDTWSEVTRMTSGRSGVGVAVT

- Kd [1]: 107 nM
- koff [2]: 0.00262 s⁻¹
B1: human Nrf2 protein (natural protein)
chain: MMDLELPPPGLPSQQDMDLIDILWRQDIDLGVSREVFDFSQRRKEYELEKQKKLEKERQEQLQKEQEKAFFAQLQLDEETGEFLPIQPAQHIQSETSGSANYSQVAHIPKSDALYFDDCMQLLAQTFPFVDDNEVSSATFQSLVPDIPGHIESPVFIATNQAQSPETSVAQVAPVDLDGMQQDIEQVWEELLSIPELQCLNIENDKLVETTMVPSPEAKLTEVDNYHFYSSIPSMEKEVGNCSPHFLNAFEDSFSSILSTEDPNQLTVNSLNSDATVNTDFGDEFYSAFIAEPSISNSMPSPATLSHSLSELLNGPIDVSDLSLCKAFNQNHPESTAEFNDSDSGISLNTSPSVASPEHSVESSSYGDTLLGLSDSEVEELDSAPGSVKQNGPKTPVHSSGDMVQPLSPSQGQSTHVHDAQCENTPEKELPVSPGHRKTPFTKDKHSSRLEAHLTRDELRAKALHIPFPVEKIINLPVVDFNEMMSKEQFNEAQLALIRDIRRRGKNKVAAQNCRKRKLENIVELEQDLDHLKDEKEKLLKEKGENDKSLHLLKKQLSTLYLEVFSMLRDEDGKPYSPSEYSLQQTRDGNVFLVPKSKKPDVKKN
